Assay results reported in paper PMC10757926 (2023).
Like-named read-outs stand apart in the source and are kept apart here.

B1: hSIRPα Nb S7 (VHH)
VHH: HVQLVESGGGLVQVGDSLRLSCAPSGRTFRAYAMAWFRQAPGKEREFVAAIRWIGGTPSYKDSVKGRFTISRDNARNTFYLQMNSLEPQDTGVYYCAAEETQKGSGLGHDGRHYDYWGQGTPVTVSS
B2: hSIRPα Nb S44 (VHH)
VHH: QVQLQESGGGLVQPGGSLRLACAASGFTFSSYDMSWVRQAPGKGLEWVSDIKSGGGRTYYADSVKGRFTISRDNAKNTVYLQMNSLKPEDTAVYYCGSLDNSGAYTGGGQGSQVTVSS
B3: hSIRPα Nb S43 (VHH)
VHH: HVQLVESGGGLVQPGGSARLSCAASGFDLDYFAIGWFRQAPGKEREGVSCISTRSETTNYVDSVKGRFTISRDNAISTVYLQMNNLKPEDTAVYYCAADWADWTMTGCQMTWDDYNYWGQGAQVTVSS
B4: hSIRPα Nb S41 (VHH)
VHH: HVQLVESGGGLVQPGGSLRLSCAASGETLDYYAIGYVRQAPGKEREGVSCISSRGDNTNYADSVKGRFTISRDNANNTVYLQMNSLKPEDTAVYYCVAIKDSWQNYYCSVGWVEYDVWGQGTQVTVSS
B5: hSIRPα Nb S21 (VHH)
VHH: DVQLVESGGGLVQPGGSLTLSCAASGFTSGTYALAYFRQAPGKEREGVSCISNDGGSRNYADSVKGRFTISRDNAKNTMYLQMNSLKPEDTAVYYCAAGPWYYCSDFARRPDGMDYWGKGTPVTVSS
B6: hSIRPα Nb S45 (VHH)
VHH: HVQLVESGGGLVQPGGSLRLSCAARGFSFRDSAMSWARQAPGKGLEWVGAIYSDGSTVYEKSVKGRFTISRDNAKNTMYLQMHSLKPEDSARYYCAPKGVVADEGDYSGQGTLVTVSS
B7: hSIRPα Nb S29 (VHH)
VHH: EVQLVESGGGLVQPGGSLRLSCAASGFTSETYAIGWFRQAPGKEREGVSCISNDGGSRNYADSVKGRFTISRDNAKNTSYLQMNSLKPEDTAVYYCAAGKYYYCLGYVSDGMDYWGKGTPVTVSS
B8: hSIRPα Nb S12 (VHH)
VHH: QVQLVESGGGLVQPGGSLRLSCLVSGFSSSYYAIGWFRQAPGKEREGVSCITRSGDTTNYADSVKGRFTISRDDARNTVYLQMNSLKTEDTAVYSCALWAWAGSGRLRCTASEYGHWGQGTQVTVSS
B9: hSIRPα Nb S14 (VHH)
VHH: EVQLVESGGGLVQPGGSLRLSCAASGFTANSYRMTWVRQAPGKGLEWVADIGTGNEWKYYPDSVKGRFTISRDAAKNTVYLQMNSLKPEDTAVYYCAKNGAVWYGEDGLDYWGKGTLVTVSS
B10: hSIRPα Nb S8 (VHH)
VHH: QVQLVESGGGLVQPGGSLRLSCADSEFRLDEYATGWFRQAPGKEREGVACISRSGSNTKYTDSVKGRFTISRDNAKKTVYLQMNSLKPEDTAVYYCAADLTSHYLSCSSYTDYNSWGQGTQVTVSS
B11: hSIRPα-S36 Nb (VHH)
VHH: EVQLVESGGGLVQPGGSLRLSCAASGFTLDYYAIGWFRQVPGKEREGVSCISSDGGGNTYYADSVKGRFTISRDNAKNTVYLQMNSLKPEDSAVYSCAAGPTYYSGSYCRDPHSDYDYWGQGTQVTVSS
B12: hSIRPα-S36K>R Nb (VHH)
VHH: EVQLVESGGGLVQPGGSLRLSCAASGFTLDYYAIGWFRQVPGREREGVSCISSDGGGNTYYADSVRGRFTISRDNARNTVYLQMNSLRPEDSAVYSCAAGPTYYSGSYCRDPHSDYDYWGQGTQVTVSS
B13: hSIRPα Nb S33 (VHH)
VHH: EVQLVESGGGLVQPGGSLRLSCTTSGFTLDYYSVGWFRQAPGKEREGVSCITASGSSTNYANSVKGRFTISRDKVKNTVYLQMSSLKPEDTAVYYCAAEPCTVVAGILQAPTSDFGSWGQGTQVTVSS
B14: hSIRPα Nb S17 (VHH)
VHH: QVQLVESGGGLVQPGGSLRLSCAASGFTLDSYVIGWFRQAPGKEREGVSCISQRIGSTDYADSVKGRFTISKDNAKNTAYLQMNALKPEDTAVYYCAAGRLYYSGTYCPQGGMSYWGKGSPVTVSS

Legend:
Assay in all cases: BLI
[1] = target: T1, biotinylated recombinant hSIRPα (extracellular portion) (human, UniProt P78324 31-373, biotin (Sulfo-NHS-LC-LC-Biotin))
[2] = target: T1, biotinylated recombinant hSIRPα …; remark: listed apart in the source
[3] = target: T1, biotinylated recombinant hSIRPα …; remark: listed apart in the source

T1 sequence (P78324 31-373): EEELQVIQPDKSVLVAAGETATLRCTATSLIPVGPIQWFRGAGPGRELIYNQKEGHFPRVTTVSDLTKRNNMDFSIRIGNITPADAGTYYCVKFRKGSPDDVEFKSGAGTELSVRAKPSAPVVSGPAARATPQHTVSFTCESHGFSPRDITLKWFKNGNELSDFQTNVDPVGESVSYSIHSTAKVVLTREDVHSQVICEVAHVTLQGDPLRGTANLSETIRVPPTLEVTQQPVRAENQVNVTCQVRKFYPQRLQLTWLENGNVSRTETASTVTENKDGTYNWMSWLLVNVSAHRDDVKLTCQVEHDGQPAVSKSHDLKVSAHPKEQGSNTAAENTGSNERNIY

Binder	koff [1] [s⁻¹]	Kd [2] [nM]	Kd [3] [nM]
B1	0.0123	20	–
B2	0.00915	4.61	–
B3	0.131	99	–
B4	0.00383	5.65	–
B5	–	2.56	–
B6	0.00164	2.53	–
B7	0.00462	4.78	–
B8	0.0127	25.9	–
B9	0.00376	16.7	–
B10	0.0009	0.46	–
B11	0.0002	0.12	–
B12	–	–	0.19
B13	0.00544	20	–
B14	0.00458	26.6	–
